# From the supplement of paper PMC9170038
# Tests used:
# [1] = tested on: MS2 coat protein; assay: apparent KD of MS2 coat protein, switch ON state; designed switch direction (-1 OFF switch, 1 ON switch): -1; higher = weaker reporter binding; details: FMN input: 0 or 200 uM; Eterna round: R93 (includes R88 designs)
# Summary of the method: (§1)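 Titrations with SNAP-549-labelled MS2 coat protein ran in twofold steps from 0.7 or 1.5 nM to 3 µM, each step taking 0.8–1.5 h at the start and 10–20 min toward the end. The targets were designed RNA switches transcribed on-chip from Illumina sequencing clusters, held in 100 mM Tris-HCl pH 7.5, 80 mM KCl, 4 mM MgCl2, without or with constant ligand. Apparent KD was taken per design as the median of normalised cluster binding-curve fits.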
# [2] = tested on: MS2 coat protein; assay: apparent KD of MS2 coat protein, switch OFF state (with FMN for OFF switches, without FMN for ON switches); designed switch direction (-1 OFF switch, 1 ON switch): -1; higher = weaker reporter binding; details: FMN input: 0 or 200 uM; Eterna round: R93 (includes R88 designs)
# Summary of the method: as §1
Sequence,apparent KD of MS2 coat protein [1] [nM],apparent KD of MS2 coat protein [2] [nM]
AAAAAGGGAGGAUAUACAUGAGGAUCACCCAUGUAUCAGACGAAAAAGAGUCUGAAGUGUAGAAGGCCCAAAAA [Exclusion3-cac2],20,25.6
AGUCUGAGAGGAUAUACAUGGAAAAAAAAAGUAAGAUCCCUACAUGAGGAUCACCCAUGUAGAAGGCUCUGACA [Ex2 Design 144: Sub-opt 8],41.7,22.7
AAAAAAUGAGGAUAUACAUGAAAAAAAAAAAAAAAAAAAAAACAUGAGGAUCACCCAUGUAGAAGGCGUAAAAA [Flexi GU!],39.8,29
GUUGUGCGAGGAUAUAUGUGAGGUUUGCCUCAACAGGUAAUACAUGAGGAUCACCCAUGUAGAAGGCGCAUGAG [S1-(23.6);S2-(22.1) [87C]],67.3,342
AACUGUACAGGAUAUACAUGAGGAUCACCCAUGUGAGAAUUAAGUGGCGUACCACAAAGUAGAAGGGUACAGGA [Mat - Exclusion 3 - JL mod - D15],36.4,192
AAAAGACAUGAGGAUCACCCAUGUUAGGAUAUCGUGCAGAAAAAAAAAAAAAACUGCACGAGAAGGAACAAGGA [Seclusion],30.5,51.9
AAGAGUACAGGAUAUACAUGAGGAUCACCCAUGUGAAAAUUAAGUGGCGUACAACAAAGUAGAAGGGUACUGGA [Ruby 51],21.9,41.7
AAUAAACAUGAGGAUCACCCAUGUCAGGAUAUCCUAAAUAAAAAAAUAUAAAGAAGAAGGAGAAGGGACUAAAA [Mystem Exclusion 1],47.2,53.5
GGUUGAAUAGGAUAUACAUGAGGAUCACCCAUGUGAGAGAAAAAAGUGAGAAAGAAAAGUAGAAGGAUUUGACG [salish99-ex3-61],34.7,65.1
AAGGGACAUGAGGAUCACCCAUGUCAGGAUAUCGGAAAAGGAAAAAUAAAAAAGAAGACGAGAAGGGACACCAA [Mat - Exclusion 1 - Eli mod - D77],38.4,32.4
AAGAACACAGGAUAUACAUGAGGAUCACCCAUGUAAAAGAAAGAAAGGGAAAAGAAAAGUAGAAGGGUGAAGAA [Aakheperre Pasebakhenniut I],40,72.6
AUAAUGUGAGGAUAUACAUGAGGAUCACCCAUGUAAUUAAAAAGGAGAGACACAAUUCGUAGAAGGUACAUUUA [JR_Exc003_Sub509],23.4,26.3
GAAAACAGAGGAUAUACAUAAGCUAGACGAAAGUCUAGCAAACAUGAGGAUCACCCAUGUAGAAGGCUGAAGAA [Meechl Mod],29.2,27.7
"AGUUGGCGAGGAUAUACAUGAGGAUCACCCAUGUAAAAUAAAUAAAAAAUAGGGAAAAGUAGAAGGCGCUGACA [73%, Moding Norbert Elias, 13]",48.4,96.3
AAGAACGUAGGAUAUACAUGAGGAUCACCCAUGUAAAAGAAAGAAAAGGGAAAGAAAAGUAGAAGGACGAAGAA [Usermaatre-setpenre Ramesses II],42.1,34.4
CUCAUGUAAGGAUAUCAGUAGUAAAAAAAUAAAAUUACUACUGAGAAGGUACAUGAGGAUCACCCAUGUCCGGG [EX4 374: Super Stable 74],21.7,18.3
AAGAAGUGAGGAUAUACAUGAGGAUCACCCAUGUAAAAGAAAGAAAGGGAAAAGAAAAGUAGAAGGCGCAAGAA [Aakheperre Shoshenq V],34.1,44.7
AAGAAGUCAGGAUAUCGAAGACUGUCGAAAAGACAGUCGAACGAGAAGGGACAUGAGGAUCACCCAUGUGGAAG [Mat - Exaclusion 4 - Eli mod - D72],99.2,321
AGUCAUACAGGAUAUACAUGAGGAUCACCCAUGUAUAUCCAAAAAAAAAAAAAAACAUGUAGAAGGGUAUGACA [EX3 207: Super Stable 7],10.8,7.41
GUGUACAGAGGAUAUACAUGAGCUAGGAAACUAGCAAGAUCACAUGAGGAUCACCCAUGUAGAAGGCUGUACAC [Ex2: 734],70,16.3
AACAGUACAGGAUAUACAUGAGGAUCACCCAUGUGAUUAUCAAGUGCCGUAGCACGAAGUAGAAGGGUACUGGA,60.3,243
AAGAAACAUGAGGAUCACCCAUGUGAGGAUAUACAAGAAAGAAAGAAAGAAAGAAGAAGUAGAAGGCACAAAGG [Gaius Valerius],31.4,14.4
AAAGUACGAGGAUAUACAUAGAUACAGAUACAUGUAGACGUACAUGAGGAUCACCCAUGUAGAAGGCGUACAUA [Mat - Same state - Mayanna Mod - D115],154,74.7

Sequence,apparent KD of MS2 coat protein [1] [nM],apparent KD of MS2 coat protein [2] [nM]
AAAAAACAUGAGGAUCACCCAUGUGAGGAUAUCGGAGGAGGAGGAGGAGGAGGAGGAGCGAGAAGGUACAAAAA [salish99-Ex1-04],14.4,31.5
AACAGUACAGGAUAUACAUGAGGAUCACCCAUGUGAAGAUUAAGAAGAAACCCACAAAGUAGAAGGGUACUGGA [Ruby 92],29,47.4
AGCAGUACAGGAUAUACAUGAGGAUCACCCAUGUGAAAAGAAAGUGGCGUACCACAAAGUAGAAGGGUACUGCA [Mat - Exclusion 3 - JL mod - D33],27.9,180
AGUUGGCGAGGAUAUACAUGAGGAUCACCCAUGUGAGAGAAAAAAGUGAGAAAGAAAAGUAGAAGGCGCUGACC [salish99-ex3-07],58.3,103
AAGAAGGAAGGAUAUACAAAAUAAAAGAAAAGAAAGAAAGAACAUGAGGAUCACCCAUGUAGAAGGUCCAAGAA [Sedjefakare],29.8,34.7
AGGGAGUGAGGAUAUACGAAAAAAAAACAACGAAAAAAAGAGUAGAAGGCACAUGAGGAUCACCCAUGUAAGAA [milkweed 14],44.5,25.3
GAUCCACAUGAGGAUCACCCAUGUAAGGAUAUUUAAAACCGGAGACAACCCUCCGAAGAAAGAAGGUACAAAAC [Ququraes],13,12.6
AACAGUACAGGAUAUACAUGAGGAUCACCCAUGUGAAAAUAAAGUGGCGUACCACAAAGUAGAAGGGUACUGGA [Moding Maslow revisited (73) 4],28.8,101
AAAGGACGAGGAUAUACAUGAGGAUCACCCAUGUAAAGGGCAUAAAAAAAGAACUUAUGUAGAAGGCGUCCAAA [Mat - Exclusion 3 - Eli mod - D95],35,26.8
GAUAGGCGAGGAUAUACAUGAGGAUCACCCAUGUAAGUAAGCCUGGCUGAAACUGAAUGUAGAAGGCGCACAUU [Ex3Try2_Neo],16.2,39.6
"AAAGGACGAGGAUAUACAUGAGGAUCACCCAUGUAAAAAACAUAAAAAAAGAAAUUAUGUAGAAGGCGUCCAAA [69%, Moding Meechl, 4]",18.1,17.8
AACAGUACAGGAUAUACAUGAGGAUCACCCAUGUGAAAGAAAAGUGGCGUACCACAAAGUAGAAGGGUACUGAA [Mat - Exclusion 3 - JL mod - D28],30.2,134
AAAAAUGCAGGAUAUACAUGAGGAUCACCCAUGUUAGACCUGAAAAAAGGGAAAGAAAGUAGAAGGGCAUAAAA [Ex 3 May 30],12.7,11.2
AAAAAACAUGAGGAUCACCCAUGUAAGGAUAUGCAAAAUAAAAGAAAUAAAAAGAAAAGCAGAAGGUAUAUGAA [JL wbt mod 7],32.6,26.7
AAAAUGUCAGGAUAUGUAGCAAAAAGUGAUCCAAAAAAGCUACAGAAGGGACAUGAGGAUCACCCAUGUAAAAA [Ex4: 932],244,406
CAGUACUGAGGAUAUACAUGAGGAUCACCCAUGUAUCCUAGCUAGGAAACUAGCAAAAGUAGAAGGCAGUACUG [Ex3: 819],13.5,118
AAAUUGUCAGGAUAUCUGGAUAGGAAAAAGAAAACCUAUCCAGAGAAGGGACAUGAGGAUCACCCAUGUAAAAA [JL cataway mod 1],81.1,107
AGGGAGUGAGGAUAUCCGAAAAAAAAACAACGAAAAAAAGAGGAGAAGGCACAUGAGGAUCACCCAUGUAAGAA [milkweed 15],40.7,28.6
AAGAAACAAGGAUAUACAAGGAAGAAAGAAAAGAAAAGAAAACAUGAGGAUCACCCAUGUAGAAGGUGUUAGAA [EteRNA is fun!],40.3,27.9
"AGGAAACAUGAGGAUCACCCAUGUGAGGAUAUGAACGAAAAUAAAUAAAAAUAAAAGUUCAGAAGGCAUAAAAA [66%, Wbt, 4]",30,35.6
AAAAAACAUGAGGAUCACCCAUGUCAGGAUAUGCAGAAAAAGAAAAAAAGAAAAGAAAGUAGAAGGGACAAAAA [May 7],31.2,31.8
AAAAAUCGAGGAUAUACAUGAGGAUCACCCAUGUCAGAAAAUGACUACACAAAAGAAAGUAGAAGGCGAUAAAG [Mat - Exclusion 3 - Mayanna mod - D131],32,64.1
